Test results: doi:10.1101/2024.04.06.588386

Tests used:
[1] = biological target: HPeV3-2A (2A^H/NC protein of human parechovirus 3) (Human parechovirus 3 (HPeV3)); assay: crystal structure
[2] = biological target: HPeV3-2A (2A^H/NC protein of human parechovirus 3) (Human parechovirus 3 (HPeV3)); assay: SEC-MALS
[3] = biological target: HPeV3-2A (2A^H/NC protein of human parechovirus 3) (Human parechovirus 3 (HPeV3)); assay: SEC-SAXS
[4] = biological target: SEBV1-2A2 (2A2 protein of Sebokele virus 1) (Sebokele virus 1 (SEBV1)); assay: crystal structure
[5] = biological target: SEBV1-2A2 (2A2 protein of Sebokele virus 1) (Sebokele virus 1 (SEBV1)); assay: SEC-MALS
[6] = biological target: SEBV1-2A2 (2A2 protein of Sebokele virus 1) (Sebokele virus 1 (SEBV1)); assay: SEC-SAXS
[7] = biological target: LV1-2A2 (2A2 protein of Ljungan virus 1, isolate 87-012) (Ljungan virus 1 (isolate 87-012)); assay: crystal structure
[8] = biological target: LV4-2A2^1-122 (C-terminally truncated 2A2 protein of Ljungan virus 4) (Ljungan virus 4 (strain 64-7855)); assay: crystal structure
[9] = biological target: LV4-2A2^1-122 (C-terminally truncated 2A2 protein of Ljungan virus 4) (Ljungan virus 4 (strain 64-7855)); assay: SEC-MALS
[10] = biological target: LV4-2A2 (full-length 2A2 protein of Ljungan virus 4, strain 64-7855) (Ljungan virus 4 (strain 64-7855)); assay: SEC-MALS
[11] = biological target: LV4-2A2 (full-length 2A2 protein of Ljungan virus 4, strain 64-7855) (Ljungan virus 4 (strain 64-7855)); assay: SEC-SAXS

HPeV3-2A (2A^H/NC protein of human parechovirus 3) (natural protein)
stoichiometry N [1]: 4 | stoichiometry N [2]: 2 | stoichiometry N [3]: 2

SEBV1-2A2 (2A2 protein of Sebokele virus 1) (natural protein)
stoichiometry N [4]: 2 | stoichiometry N [5]: 2 | stoichiometry N [6]: 2

LV1-2A2 (2A2 protein of Ljungan virus 1, isolate 87-012) (natural protein)
stoichiometry N [7]: 2

LV4-2A2^1-122 (C-terminally truncated 2A2 protein of Ljungan virus 4) (domain or fragment)
stoichiometry N [8]: 2 | stoichiometry N [9]: 2

LV4-2A2 (full-length 2A2 protein of Ljungan virus 4, strain 64-7855) (natural protein)
stoichiometry N [10]: 2 | stoichiometry N [11]: 2
